# Source: patent US20150133651, “CslA9 Gluco-mannan Synthase Gene” (published 2015)
# B1: CSLA9 promoter -705 to -556 (dsDNA)
# DNA 1: CTTAAAATAACAATTTGTTTTGTATCTTCGCCTGGACGTCATTAATGTTTGTGTCGTTCAATAATGTTTGGTAGTTATATATAGAAAGAGCAAATTTATGGTTGATTGATGGTGCAAAAAAATTCATTTCTCTATATTCTAGAGAAATAA
# DNA 2: TTATTTCTCTAGAATATAGAGAAATGAATTTTTTTGCACCATCAATCAACCATAAATTTGCTCTTTCTATATATAACTACCAAACATTATTGAACGACACAAACATTAATGACGTCCAGGCGAAGATACAAAACAAATTGTTATTTTAAG
# Columns and labels:
# [1] = target: MYB83 (At3g08500) (Arabidopsis thaliana, UniProt Q9C6U1 Q9C6U1:1-343); assay: EMSA; 10 mM Tris pH 7.5, 50 mM KCl, 5 mM MgCl2, poly(dI-dC); conditions: tags: GST fusion, E. coli Rosetta gami; label: 32P
# Experimental: (§1) DNA fragments for EMSA were obtained by PCR-amplification and labeled with [γ-³²P]ATP using T4 polynucleotide kinase (NEB). The end-labeled probes were purified with Microspin S-200 HR column (GE Healthcare). The labeled DNA fragments were incubated for 25 min with 50 ng of GST-MYB46, GST-MYB83, GST-bZIP1 and GSTANAC041 in a binding buffer [10 mM Tris (pH 7.5), 50 mM KCl, 1 mM DTT, 2.5% glycerol, 5 mM MgCl₂, 100 μg/ml BSA, and 50 ng/μL poly(dI-dC)]. Five percent polyacrylamide gel electrophoresis (PAGE) was used to separate the recombinant protein-bound DNA fragments from the unbound ones. The gel was dried and placed in a film cassette and exposed to X-ray film (Kodak) for overnight. Radioactive fragments were visualized by autoradiography.
# [2] = target: MYB46 (Arabidopsis thaliana, UniProt Q9LXV2 SEQ:1-280); assay: EMSA; 10 mM Tris pH 7.5, 50 mM KCl, 5 mM MgCl2, poly(dI-dC); competed by 50x unlabeled probe; conditions: tags: GST fusion, E. coli Rosetta gami; label: 32P
# Experimental: as §1
# To evaluate whether MYB46 could directly bind to the CSLA9 promoter sequence, electrophoretic mobility shift assays (EMSAs) were performed with the GST-MYB46 fusion protein as described in Example 1.
# Sequence of MYB83 (At3g08500) (Q9C6U1 whole entry, the tested form may be a part, one chain of several): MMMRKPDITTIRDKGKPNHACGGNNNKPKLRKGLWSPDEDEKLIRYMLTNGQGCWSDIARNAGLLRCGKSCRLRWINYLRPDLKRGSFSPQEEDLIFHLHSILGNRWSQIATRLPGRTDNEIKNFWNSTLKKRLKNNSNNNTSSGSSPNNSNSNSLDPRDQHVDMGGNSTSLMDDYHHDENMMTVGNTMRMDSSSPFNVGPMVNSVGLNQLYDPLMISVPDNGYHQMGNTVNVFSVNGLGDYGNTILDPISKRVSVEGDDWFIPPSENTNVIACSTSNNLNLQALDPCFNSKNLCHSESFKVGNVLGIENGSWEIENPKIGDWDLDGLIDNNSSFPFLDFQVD
# Sequence of MYB46 (Q9LXV2 whole entry, the tested form may be a part): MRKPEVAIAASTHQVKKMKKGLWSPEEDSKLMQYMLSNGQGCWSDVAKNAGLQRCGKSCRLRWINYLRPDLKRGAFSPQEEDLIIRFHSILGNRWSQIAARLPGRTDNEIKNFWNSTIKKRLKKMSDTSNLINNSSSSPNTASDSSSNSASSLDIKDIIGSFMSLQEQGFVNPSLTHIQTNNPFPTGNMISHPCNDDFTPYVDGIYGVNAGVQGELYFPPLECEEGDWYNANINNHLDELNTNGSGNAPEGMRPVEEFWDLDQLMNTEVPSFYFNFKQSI
binder,measurement,setting,value
B1,binding result,[1],binds
same,binding result,[2],binds
